Reference: US20160177307

Target: PDGF-BB (platelet-derived growth factor BB) (Homo sapiens) (UniProt P01127)
Test: filter
[1] = Trp, Ib, NE, Th, Pe, MBn dU, Heg, 2'-OMe
[2] = all Z are BndU, rest DNA, SB18T, 37 C
[3] = all P are NapdU, rest DNA, SB18T, 37 C

PDGF-BB (platelet-derived growth factor BB) (Homo sapiens), sequence (P01127 82-190): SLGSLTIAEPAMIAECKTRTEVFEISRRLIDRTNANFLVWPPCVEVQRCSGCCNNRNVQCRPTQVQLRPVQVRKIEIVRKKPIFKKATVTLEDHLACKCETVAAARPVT

CGACAGCATGTATGCACATCT [5169-4_82]
Kd (NapdU at 9,11,13,19, 2'-OMe at G6,C7,G14,A16,A18,C20 and 2'-OMe-NapU21, SB18T, 37 C): 0.0016 nM

TTACGTTACACGCGTTTATAGCG [4149-8_253]
Kd [1]: > 10 nM

CGACAGCATGTATGCACATCT [5169-4_113]
Kd (NapdU at P, 2'-OMe 7,16,21): 0.012 nM

TTACGACTACGTTCACGCGTTTATAGCG [4149-8_77]
Kd (Bn-dU, C3 at 14): > 10 nM

CGTTACACGCGTTTATAGCGTCAACCCGAGTGAACA [4149-8_17]
Kd (Bn-dU): > 10 nM

CGACAGCATGTATGCACATCT [5169-4_86]
Kd (NapdU at P, 2'-OMe 1,2,4,6,7,11,14-18,20,21): 0.064 nM

CGACAGCATGTATGCACATCT [5169-4_111]
Kd (NapdU at P, 2'-OMe 7,14,16): 0.0048 nM

CGAAGCATGTATGCACATCT [5169-4_62]
Kd (C3 spacer at 4, NapdU at 9,11,13,19,21, C3 spacer walk): 42 nM

TTACGTTACACGCGTTTATAGCG [4149-8_350]
Kd (Bn-dU, Pe-dU17, 2'-F C10, Heg, 2'-OMe): > 10 nM

TTACGACTACGTTACACGCGTTTATAGCG [4149-8_109]
Kd (Bn-dU, 2'-OMe U22): > 10 nM

TTACGACTACGTTACACGCGTTTATAGCG [4149-8_108]
Kd (Bn-dU, 2'-OMe U21): > 10 nM

TTACGTTACACGCGTTTATAGCG [4149-8_250]
Kd (Tyr, MBn, FBn, Ib, 2Nap, Pe, Th, NE dU, Heg, 2'-OMe): > 10 nM

TTACGTTACACGCGTTTATAGCG [4149-8_306]
Kd (Bn-dU, 2'-OMe Bn-U2, Heg5, 2'-OMe A3, A11, A21, G24): > 10 nM

CGACAGCATGTATGCACATCT [5169-4_43]
Kd (NapdU at P, 2'-OMe 3): 0.16 nM

CGACAGCATGTATGCACATCTAGAGGCTACCCAGT [5169-4_17]
Kd (NapdU at P): 0.02 nM

CTTACGACTACGTTACACGCGTTTATAGCGTCAACCCGA [4149-8_26]
Kd [2]: 0.08 nM

CGACAGCATGTATGCACATCT [5169-4_110]
Kd (NapdU at P, 2'-OMe 1,14,16): 0.005 nM

TTACGTTACACGCGTTTATAGCG [4149-8_258]
Kd (Bn-dU, 2'-OMe U7, Ib-dU8, Heg5, 2'-OMe A3, A11, A21, G24): > 10 nM

CTTACGACTACGTTACACGCGTTTATAGCGTCAACCCGAGTGAACA [4149-8_12]
Kd [2]: 0.04 nM

TTACGTTACCGCGTTTATAGCG [4149-8_379]
Kd (BndU at 1,8,16,17,20, MBndU at 2, Heg at 5, C3 at 11, 2'-OMe at A3,C12,A19,A21,G24 and 2'-OMe-BnU at 7,18, Table 30 gives 1.6E-11, Table 31 5.2E-11): 0.02 nM

TTACGACTACGTTACACGCGTTTA [4149-8_43]
Kd (Bn-dU): > 10 nM

TTACGACTACGTTACACGCGTTATAGCG [4149-8_84]
Kd (Bn-dU, C3 at 21): > 10 nM

CTCTTACGACTACGTTACACGCGTTTATAGCGTC [4149-8_27]
Kd [2]: 0.09 nM

CAGCATGTATGCACATCTAGAGGCTACCCAGTGAATGAGGA [5169-4_6]
Kd [3]: 67 nM

CGACAGCATGTATCACATCT [5169-4_72]
Kd (C3 spacer at 14, NapdU at 9,11,13,19,21, C3 spacer walk): 230 nM

GACAGCATGTATGCACATCT [5169-4_59]
Kd (C3 spacer at 1, NapdU at 9,11,13,19,21, C3 spacer walk): 0.053 nM

CGACAGCATGTATGCACATCT [5169-4_176]
Kd (as 5169-4_146, PS 17, 3' inverted dT): 0.014 nM

TTACGTTACACGCGTTTATAGCGNT [4149-8_339]
Kd (4149-8_260 3'-3' dimer, C3, doubler): 0.0062 nM

TTACGTTACACGCGTTTATAGCGNT [4149-8_342]
Kd (4149-8_260 3'-3' dimer, 3 Heg, doubler): 0.0181 nM

TTACGTTACCGCGTTTATAGCG [4149-8_418]
Kd (as 4149-8_379, 2'-OMe 15): 0.21 nM

ATCTCTTACGACTACGTTACACGCGTTTATAGCGTCAACCCGAGTG [4149-8_5]
Kd [2]: 0.02 nM

CTGCCTCGACAGCATGTATGCACATCTAGAGGCTACCCAGT [5169-4_9]
Kd [3]: 0.72 nM

CGACAGCATGTATGCACATCT [5169-4_157]
Kd (as 5169-4_146, PS 12, 3' inverted dT): 0.018 nM

CGACAGCATGTATGCACATCT [5169-4_115]
Kd (NapdU at P, 2'-OMe 4,7,21): 0.024 nM

CGACAGCATGTATGCACATCTAGAGGCTACCCAGTG [5169-4_16]
Kd (NapdU at P): 0.016 nM

TTACGACTACGTTACACGCGTTTATAGCG [4149-8_107]
Kd (Bn-dU, 2'-OMe U13): > 10 nM

TTACGTTACACGCGTTTATAGCG [4149-8_310]
Kd (Bn-dU, 2'-OMe Bn-U17, Heg5, 2'-OMe A3, A11, A21, G24): > 10 nM

CGACAGCATGTATGCACATCT [5169-4_41]
Kd (NapdU at P, 2'-OMe 10): 0.097 nM

TTACGTTACCGCGTTTATAGCG [4149-8_454]
Kd (BndU at 1,2,8,17,20, NapdU at 16, Heg 5, C3 11, 2'-OMe at 3,7,12,18,19,21,24, PS 3' of 9,15,16,17, 3'-idT): 0.0013 nM

CGACAGCATGTATGCACATCT [5169-4_45]
Kd (2'-OMe A8, NapdU at 9,11,13,19,21, 2'-OMe substitution): 0.93 nM

TTACGTTACACGCGTTTATAGCG [4149-8_309]
Kd (Bn-dU, 2'-OMe Bn-U16, Heg5, 2'-OMe A3, A11, A21, G24): > 10 nM

CGACAGCATGTATGCACATCT [5169-4_180]
Kd (as 5169-4_146, PS 16, 3' inverted dT): 0.02 nM

TTACGTTACACGCGTTTATAGCG [4149-8_277]
Kd (Bn-dU, Tyr-dU1, Ib-dU8, Pe-dU17, Th-dU18, Heg5, 2'-OMe A3, A11, A21, G24): > 10 nM

GACAGCATGTATGCACATCTA [5169-4_29]
Kd (NapdU at P): 0.062 nM

CGACAGCATGTATGCACATCT [5169-4_106]
Kd (NapdU at P, 2'-OMe 1,18,20): 0.016 nM

CGACGCATGTATGCACATCT [5169-4_63]
Kd (NapdU at P, C3 spacer at 5): 29 nM

CTGCCTCGACAGCATGTATGCACATCTAGAGGCTACCCAGTGAATGAGGA [5169-4_3]
Kd [3]: 0.029 nM

CGACAGCATGTATGCACATCT [5169-4_49]
Kd (NapdU at P, 2'-OMe 9): 0.53 nM

CGACAGCATGTATGCACATCT [5169-4_55]
Kd (NapdU at 9,13,19,21, dT at 11, dT substitution): 7.8 nM

TTACGACTACGTTACACGCGTTTAAGCG [4149-8_88]
Kd (Bn-dU, C3 at 25): > 10 nM

CGACAGCATGTATGCACATCT [5169-4_155]
Kd (as 5169-4_146, PS 10, 3' inverted dT): 0.0069 nM

CGACAGCATGTATGCACATCT [5169-4_182]
Kd (as 5169-4_146 plus PS 3' of 9,10,11,12, 3'-idT): 0.039 nM

CGACAGCATGTATGCACATCT [5169-4_109]
Kd (NapdU at P, 2'-OMe 1,6,16): 0.011 nM

TTACGACTACGTTACACGCGTTATAGCG [4149-8_85]
Kd (Bn-dU, C3 at 22): > 10 nM

TACGACTACGTTACACGCGTTTATAGCG [4149-8_65]
Kd (Bn-dU, C3 at 2): > 10 nM

TTACGTTACACGCGTTTATAGCG [4149-8_178]
Kd (Bn-dU, Trp-dU8, Heg5, 2'-OMe A3, A11, A21, G24): > 10 nM

TTACGTTACCGCGTTTATAGCG [4149-8_431]
Kd (as 4149-8_379, NapdU 16, PS 9,15,17): 0.043 nM

CGACAGCATGTATGCACATCT [5169-4_92]
Kd (NapdU at P, 2'-OMe 1,7,15,16,18,20,21): 0.0052 nM

TTACGTTACCGCGTTTATAGCG [4149-8_436]
Kd (as 4149-8_379, BndU 2, PS 9,15,17): 0.0077 nM

CGACAGCATGTATGCACATCT [5169-4_181]
Kd (as 5169-4_146, PS 18, 3' inverted dT): 0.021 nM

CGACAGCATGTATGCACATCTAGAGGCTACCCAGTGA [5169-4_15]
Kd (NapdU at P): 0.019 nM

TTACGTTACACGCGTTTATAGCGNT [4149-8_341]
Kd (4149-8_260 3'-3' dimer, 2 Heg, doubler): 0.0272 nM

TTACGTTACCGCGTTTATAGCG [4149-8_421]
Kd (as 4149-8_379, 2'-OMe 13): 0.019 nM

TTACGTTACACGCGTTTATAGCG [4149-8_348]
Kd (Bn-dU, Pe-dU17, 2'-F A9, Heg, 2'-OMe): > 10 nM

TTACGACTACGTTACACGCGTTTATACG [4149-8_90]
Kd (Bn-dU, C3 at 27): > 10 nM

TTACGACTACGTTACACCGTTTATAGCG [4149-8_81]
Kd (Bn-dU, C3 at 18): > 10 nM

ATCTCTTACGACTACGTTACACGCGTTTATAGCGTCAA [4149-8_9]
Kd [2]: 0.03 nM

CTGCCTCGACAGCATGTATGCACATCTAGAGGCTACCCAGTGAA [5169-4_8]
Kd (NapdU at P): 0.036 nM

CGACAGCATGTATGCACATCTAGAGGCTACCCAGTGAA [5169-4_12]
Kd (NapdU at P): 0.064 nM

CGACAGCATGTATGCACATCT [5169-4_48]
Kd (NapdU at P, 2'-OMe 18): 0.014 nM

TTACGTTACACGCGTTTATAGCG [4149-8_305]
Kd (Bn-dU, 2'-OMe Bn-U1, Heg5, 2'-OMe A3, A11, A21, G24): > 10 nM

GACAGCATGTATGCACATCTAGA [5169-4_27]
Kd (NapdU at P): 0.062 nM

TTACGACTACGTTACACGGTTTATAGCG [4149-8_82]
Kd (Bn-dU, C3 at 19): > 10 nM

CGACAGCATGTATGCACATCT [5169-4_159]
Kd (as 5169-4_146, PS 19, 3' inverted dT): 0.015 nM

CCTCGACAGCATGTATGCACATCTAGAGGCTACCCAGTGAATGAGGA [5169-4_4]
Kd (NapdU at P, SB18T, 37 C): 0.027 nM

CGACAGCTGTATGCACATCT [5169-4_66]
Kd (C3 spacer at 8, NapdU at 9,11,13,19,21, C3 spacer walk): 8.5 nM

CGACAGCATGTATGCACATCT [5169-4_80]
Kd (NapdU at P, 2'-OMe 7,16,18): 0.0061 nM

CGACAGCATGTATGCACATCT [5169-4_38]
Kd (NapdU at P, 2'-OMe 20): 0.022 nM

TTCGACTACGTTACACGCGTTTATAGCG [4149-8_66]
Kd (Bn-dU, C3 at 3): > 10 nM

TTACGTTACACGCGTTTATAGCG [4149-8_252]
Kd [1]: > 10 nM

CGACAGCATGTATGCACATCT [5169-4_33]
Kd (NapdU at P, 2'-OMe 1): 0.027 nM

TTACGACTACGTTACACGCGTTTATAGCG [4149-8_38]
Kd (BndU at 1,2,8,12,13,21,22,23,25, rest DNA, SB18T, 37 C, text p191 gives 20 pM, Table 1a 30 pM): 0.05 nM

TTACGACTACGTTACACGCGTTATAGCG [4149-8_86]
Kd (Bn-dU, C3 at 23): > 10 nM

TTACGTTACACGCGTTTATAGCG [4149-8_196]
Kd (Bn-dU, 2NE-dU17, Heg5, 2'-OMe A3, A11, A21, G24): > 10 nM
